# Measurements reported in US8603949B2, “Libraries of optimized cytochrome P450 enzymes and the optimized P450 enzymes” (California Institute of Technology, priority 2003, dated 2013).
# Legend:
# [1] = Thermostability (loss of Soret band at increasing temperatures); format: physicochemical; details: cell extracts heated 10 minutes
# Description: Thermostability was assayed by monitoring the loss of the Soret band at increasing temperatures. […] However, thermostability may be important for retention of catalytic activity: the two chimeras that lacked peroxygenase activity were also the least thermostable.
# Cell extracts were heated in a thermocycler for 10 minutes at various temperatures, followed by cooling to 4° C. Extracts were centrifuged for 5 minutes at 3500×g to remove any precipitates. Carbon monoxide reduced difference spectroscopy was used to quantitate the amount of P450. The reduction of the carbon monoxide peak was monitored over a range of temperatures.
# [2] = Peroxygenase substrate activity profile; format: biochemical; details: 20 mM H2O2
# Description: The chimeras were assayed for hydroxylation of p-nitrophenoxydodecanoic acid (12-pNCA), a fatty acid analog that is hydroxylated by CYP102A1 and CYP102A2 to yield p-nitrophenolate (Schwaneberg et al., Anal Biochem 269,359-366 (1999)). […] When hydroxylation rates for the parent CYP102 enzymes were monitored using the maximum soluble concentrations of these substrates, activity could only be detected on 2-phenoxy-ethanol.
# Chimeras were assayed for peroxygenase activity on 12-pNCA, 2-phenoxy -ethanol and allyloxy-benzene. […] Rates are reported in nmol product/nmol P450/minute. […] Those with no activity include 65-256 and 277-365. Those with new activity include 165-256, 191-335, and 43-135.
# This Example provides one method by which peroxygenase activity of a P450 enzyme may be characterized. First order rates for p-nitrophenolate accumulation were determined using 1 μM enzyme, 20 mM H2O2, 250 μM 12-pNCA and 0.5% dimethyl sulfoxide (DMSO) in 100 mM Tris-HCl (pH 8.2) at room temperature. Enzyme, substrate, buffer and DMSO were combined in a cuvette and zeroed at 410 nm. Reaction mixtures were incubated for 4 minutes and initiated by the addition of H2O2 to a final concentration of 20 mM. Initial rates were determined by monitoring the accumulation of p-nitrophenolate at 410 nm, and data from the first six seconds were used to determine initial rates. […] The extinction coefficient of p-nitrophenolate is 13,200 M^−1cm^−1 (Schwaneberg et al., Anal Biochem 269:359-366 (1999)).
# Rates on 2-phenoxy-ethanol and allyloxy-benzene were determined using 2 μM enzyme, 20 mM H2O2, 1% DMSO, and 1% acetone in 100 mM N-[2-hydroxyethyl]piperazine-N′-[3-propanesulfonic acid] (Epps) (pH 8.2) at room temperature. Substrate concentrations for 2-phenoxy-ethanol (100 mM) and allyloxy benzene (50 mM) maintained saturation. Reactions were initiated by the addition of H2O2 and quenched at appropriate times using an equal volume of a solution containing 4M urea and 100 mM NaOH. 120 μl of 0.6% 4-AAP was added, followed by mixing and addition of 120 μl of 0.6% potassium persulfate. Color was allowed to develop for 20 minutes before absorbance was read at 500 nm. Rates were determined from the linear region of the time course. The major products were determined by GC/MS to be the hemiacetal, which decomposes to phenol. The extinction coefficient for the 4-AAP/phenol complex was determined to be 4,800 M^−1cm^−1. The results can be seen in FIG. 4.
# [3] = Peroxidase activity with ABTS and H2O2; format: biochemical; details: for Peroxidase activity: 10 mM ABTS, 20 mM H2O2, pH 5.0, activities <0.2 not detectable (N.D.); for peroxidase activity relative to parents: ABTS
# Text: P450s can reduce peroxide to water (and a proton) using a mechanism similar to that of peroxidases, although the intrinsic rate for P450s is many orders of magnitude slower. (Mansuy, D., Comp Biochem Physiol C Pharmacol Toxicol Endocrinol 121, 5-14 (1998)). It has been proposed that the earliest P450 function may have been as a peroxidase. (Gotoh, O., Cytochrome P450, 2nd Edition, pp. 255-272 (1993)). To investigate how recombination affects P450 peroxidase activity, the colorimetric substrate 2,2′-azino-bis(3-ethylbenzothiazoline-6-sulfonate) (ABTS) was used to monitor this reaction (Childs et al., Biochem J 145,93-103 (1975)).
# This example provides an example of how one can measure peroxidase activity. Initial rates of peroxidase activity were measured by monitoring the accumulation of the radical cation of ABTS at 414 nm (Childs et al., Biochem J., 145:93-103 (1975)). Enzyme (1 μM) was mixed with 10 mM ABTS in 200 mM phosphate buffer (pH 5.0) in a cuvette at room temperature. Samples were zeroed and reactions were initiated with the addition of H2O2 to a concentration of 20 mM. The absorbance at 414 nm was monitored for 5 minutes. Rates were determined from the steepest portion of the time course. An extinction coefficient of […] for ABTS was used.
molecule,measurement,setting,value
"Chimera 165-256M: mirror chimera of 165-256, sequences from opposite parents at every position (protein, Chimeric Cytochrome P450 heme group sequence from Bacillus megaterium and Bacillus subtilis) KETSPIPQPKTFGPLGNLPLIDKDKPTLSLIKLAEEQGPIFQIHTPAGTTIVVSGHELVKEVCDEERFDKSIEGALEKVRAFSGDGLATSWTHEPNWRKAHNILMPTFSQRAMKDYHEKMVDIAVQLIQKWARLNPNEAVDVPGDMTRLTLDTIGLCGFNYRFNSFYRDQPHPFITSMVRALDEAMNKLQRANPDDPAYDENKRQFQEDIKVMNDLVDKIIADRKASGEQSDDLLTHMLNGKDPETGEPLDDENIRYQIITFLIAGHETTSGLLSFATYFLLKHPDKLKKAYEEVDRVLTDAAPTYKQVLELTYIRMILNESLRLWPTAPAFSLYPKEDTVIGGKFPITTNDRISVLIPQLHRDRDAWGKDAEEFRPERFEHQDQVPHHAYKPFGNGQRACIGMQFALHEATLVLGMILKYFTLIDHENYELDIKQTLTLKPGDFHISVQSRHQEAIHADVQAAE",Tm,[1],50 °C
same,substrate activity profile relative to parents,[2],parent-like profiles
same,Peroxidase activity,[3],3.5 nmol product/nmol P450/min
same,peroxidase activity relative to parents,[3],did not show similarly enhanced levels
"Chimera 169-197M: mirror chimera of 169-197, sequences from opposite parents at every position (protein, Chimeric Cytochrome P450 heme group sequence from Bacillus megaterium and Bacillus subtilis) KETSPIPQPKTFGPLGNLPLIDKDKPTLSLIKLAEEQGPIFQIHTPAGTTIVVSGHELVKEVCDEERFDKSIEGALEKVRAFSGDGLATSWTHEPNWRKAHNILMPTFSQRAMKDYHEKMVDIAVQLIQKWARLNPNEAVDVPGDMTRLTLDTIGLCGFNYRFNSYYREQPHPFITSMVRALDEAMNKLQRANPDDPAMVRTKRQFRYDIQTMFSLVDSIIAERRANGDQDEKDLLARMLNVEDPETGEKLDDENIRFQIITFLIAGHETTSGLLSFATYFLLKHPDKLKKAYEEVDRVLTDAAPTYKQVLELTYIRMILNESLRLWPTAPAFSLYPKEDTVIGGKFPITTNDRISVLIPQLHRDRDAWGKDAEEFRPERFEHQDQVPHHAYKPFGNGQRACIGMQFALHEATLVLGMILKYFTLIDHENYELDIKQTLTLKPGDFHISVQSRHQEAIHADVQAAE",Tm,[1],43 °C
same,substrate activity profile relative to parents,[2],altered activity
same,Peroxidase activity,[3],0.3 nmol product/nmol P450/min
same,peroxidase activity relative to parents,[3],did not show similarly enhanced levels
"Chimera 285-341: CYP102A1 heme domain with residues 285-341 from CYP102A2 (protein, Chimeric Cytochrome P450 heme group sequence from Bacillus megaterium and Bacillus subtilis, CYP102A1 heme domain with residues 285-341 from CYP102A2) TIKEMPQPKTFGELKNLPLLNTDKPVQALMKIADELGEIFKFEAPGRVTRYLSSQRLIKEACDESRFDKNLSQALKFVRDFAGDGLATSWTHEKNWKKAHNILLPSFSQQAMKGYHAMMVDIAVQLVQKWERLNADEHIEVPEDMTRLTLDTIGLCGFNYRFNSFYRDQPHPFITSMVRALDEAMNKLQRANPDDPAYDENKRQFQEDIKVMNDLVDKIIADRKASGEQSDDLLTHMLNGKDPETGEPLDDENIRYQIITFLIAGHETTSGLLSFALYFLVKNPDKLKKAYEEVDRVLTDAAPTYKQVLELTYIRMILNESLRLWPTAPAFSLYPKEDTVIGGEYPLEKGDELMVLIPQLHRDKTIWGDDVEEFRPERFENPSAIPQHAFKPFGNGQRACIGQQFALHEATLVLGMMLKHFDFEDHTNYELDIKETLTLKPEGFVVKAKSKKIPLGGIPSPST",Tm,[1],53 °C
same,substrate activity profile relative to parents,[2],parent-like profiles
same,Peroxidase activity,[3],2.1 nmol product/nmol P450/min
"Chimera 70-299: CYP102A1 heme domain with residues 70-299 from CYP102A2 (protein, Chimeric Cytochrome P450 heme group sequence from Bacillus megaterium and Bacillus subtilis, CYP102A1 heme domain with residues 70-299 from CYP102A2) TIKEMPQPKTFGELKNLPLLNTDKPVQALMKIADELGEIFKFEAPGRVTRYLSSQRLIKEACDESRFDKSIEGALEKVRAFSGDGLATSWTHEPNWRKAHNILMPTFSQRAMKDYHEKMVDIAVQLIQKWARLNPNEAVDVPGDMTRLTLDTIGLCGFNYRFNSYYRETPHPFINSMVRALDEAMHQMQRLDVQDKLMVRTKRQFRYDIQTMFSLVDSIIAERRANGDQDEKDLLARMLNVEDPETGEKLDDENIRFQIITFLIAGHETTSGLLSFATYFLLKHPDKLKKAYEEVDRVLTDPVPSYKQVKQLKYVGMVLNEALRLWPTAPAFSLYAKEDTVLGGEYPLEKGDELMVLIPQLHRDKTIWGDDVEEFRPERFENPSAIPQHAFKPFGNGQRACIGQQFALHEATLVLGMMLKHFDFEDHTNYELDIKETLTLKPEGFVVKAKSKKIPLGGIPSPST",Tm,[1],42 °C
same,substrate activity profile relative to parents,[2],altered activity
same,Peroxidase activity,[3],0.8 nmol product/nmol P450/min
"CYP102A2: parent P450 heme domain from Bacillus subtilis, with the F88A mutation (protein, listed as Bacillus subtilis) KETSPIPQPKTFGPLGNLPLIDKDKPTLSLIKLAEEQGPIFQIHTPAGTTIVVSGHELVKEVCDEERFDKSIEGALEKVRAFSGDGLATSWTHEPNWRKAHNILMPTFSQRAMKDYHEKMVDIAVQLIQKWARLNPNEAVDVPGDMTRLTLDTIGLCGFNYRFNSYYRETPHPFINSMVRALDEAMHQMQRLDVQDKLMVRTKRQFRYDIQTMFSLVDSIIAERRANGDQDEKDLLARMLNVEDPETGEKLDDENIRFQIITFLIAGHETTSGLLSFATYFLLKHPDKLKKAYEEVDRVLTDAAPTYKQVLELTYIRMILNESLRLWPTAPAFSLYPKEDTVIGGKFPITTNDRISVLIPQLHRDRDAWGKDAEEFRPERFEHQDQVPHHAYKPFGNGQRACIGMQFALHEATLVLGMILKYFTLIDHENYELDIKQTLTLKPGDFHISVQSRHQEAIHADVQAAE",Tm,[1],44 °C
same,Peroxidase activity,[3],0.4 nmol product/nmol P450/min
same,peroxidase activity relative to parents,[3],"low, but detectable peroxidase activity"
"Chimera 364-403: CYP102A1 heme domain with residues 364-403 from CYP102A2 (protein, Chimeric Cytochrome P450 heme group sequence from Bacillus megaterium and Bacillus subtilis, CYP102A1 heme domain with residues 364-403 from CYP102A2) TIKEMPQPKTFGELKNLPLLNTDKPVQALMKIADELGEIFKFEAPGRVTRYLSSQRLIKEACDESRFDKNLSQALKFVRDFAGDGLATSWTHEKNWKKAHNILLPSFSQQAMKGYHAMMVDIAVQLVQKWERLNADEHIEVPEDMTRLTLDTIGLCGFNYRFNSFYRDQPHPFITSMVRALDEAMNKLQRANPDDPAYDENKRQFQEDIKVMNDLVDKIIADRKASGEQSDDLLTHMLNGKDPETGEPLDDENIRYQIITFLIAGHETTSGLLSFALYFLVKNPHVLQKAAEEAARVLVDPVPSYKQVKQLKYVGMVLNEALRLWPTAPAFSLYAKEDTVLGGEYPLEKGDELMVLIPQLHRDRDAWGKDAEEFRPERFEHQDQVPHHAYKPFGNGQRACIGMQFALHEATLVLGMMLKHFDFEDHTNYELDIKETLTLKPEGFVVKAKSKKIPLGGIPSPST",Tm,[1],51 °C
same,substrate activity profile relative to parents,[2],parent-like profiles
same,Peroxidase activity,[3],1 nmol product/nmol P450/min
